# Experimental data taken from the nanobody polyreactivity screen of Harvey et al. (2022).
# Experiment: yeast display, Sf9 membrane polyspecificity reagent, FACS + sequencing; frameworks hold sequencing errors
# Method in brief: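 Synthetic nanobody libraries on Saccharomyces cerevisiae BJ5465 were galactose-induced for 36–48 hours, stained 1 hour at 4 °C with 10% biotinylated, detergent-solubilized Sf9 membrane reagent and enriched on streptavidin microbeads. FACS then separated cells into low and high (top ~1%) gates by anti-HA (expression) and streptavidin (reagent binding) fluorescence. Genes were colony-PCR amplified, MiSeq 2 × 250 sequenced and CDR-length filtered. A clone's polyreactivity label is that of its gate of origin.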
row,Sequence,polyreactivity (PSR sort gate)
1,QVQLVESGGGLVQAGGSLRLSCAASGSTFETYAMGWYRQAPGKEMELVAAISKTGARTYYADSVKGRFTISRDNAKNTVYLQMNSLKPEDTAVYYCAAERKAHRKPHSRVDKYYYWGQGTQVTVSS,high polyreactivity
2,QVQLVESGGGLVQAGGSLRLSCAASGSTFEVYTMGWYRQAPGKARELVADITWSGGNTYYADSVKGRYTISRDNAKNTVYLQMNSLKPEDTAVYYCAVDGGEFSSYGYWGQGTQVTVSS,low polyreactivity
3,QVQLVESGGGLVQAGGSLRLSCAASGSTFEYNAMGWYIQAPGKERELVASSTNYADSVKGRFTISRDNANNTVYLQMNSLKPEDTAVYYCAREQCVNRNHDYWGQGTQVTVSS,low polyreactivity
4,QVQLVESGGGLVQAGGSLRLSCAASGSTFEYNAMGWYRQAPGKERELVASSTNYADSVKGRFTISRDNAKNTVYLQMNSLKPEDTAVYYCARVQGVNRNHDYWGQGTQVTVSS,low polyreactivity
5,QVQLVESGGGLVQAGGSLRLSCAASGSTFEYYAMGWYRQAPGKERELVATITLIAGSTYADSVKGRFTISRDNAKNTVYLQMNSLKPEDTAVYYCAADDGGYESPEFVYGGRGDYWGQGTQVTVSS,low polyreactivity
6,QVQLVESGGGLVQAGGSLRLSCAASGSTFEYYGMGWYRQAPGKERELVATITSGGSTNYADSVKGRFTISRDNAKNTVYLQMNSLKPEDTAVYYCAVDISNSLGGGFGYDYWGQGTQVTVSS,low polyreactivity
7,QVQLVESGGGLVQAGGSLRLSCAASGSTFFDYAMGWYRQAPGKEREFVAAISRSGDTNYADSVKGRFTISRDNAKNTVYLQMNSLKPEDTAVYYCAKDWAYRRHWVGFYYWGQGTQVTVSS,low polyreactivity
8,QVQLVESGGGLVQAGGSLRLSCAASGSTFFFNAMGWYRQAPGKERELVAAITGRSGSTYYADSVKGRFTISRDNAKNTVYLQMNSLKPEDTAVYYCAADFSPWRSDFDYWGQGTQVTVTS,low polyreactivity
9,QVQLVESGGGLVQAGGSLRLSCAASGSTFFGNAMGWYRQAPGKERELVAAITSGGSTNYADSVKGRFTISRDNAKNTVYLQMNSLKPEDTAVYYCAKEYHYYYWGQGTQVTVSS,low polyreactivity
10,QVQLVESGGGLVQAGGSLRLSCAASGSTFFGYDMGWSRQAPGKERELVATINSGGSTYYADSVKGRFTISRDNAKNTVYLQMNSLKPADTAVYYCAARPSYLYPYDRTGEYDYWGQGTQVTVSS,high polyreactivity
11,QVQLVESGGGLVQAGGSLRLSCAASGSTFFGYTMGWYRQAPGKERELVAAITASDGSTYYADSVKGRFTISRDNAKNTVYLQMNSLKPEDTAVYYCNADYRLVRSFRLSSYTYIYDYWGQGTQVTVSS,low polyreactivity
12,QVQLVESGGGLVQAGGSLRLSCAASGSTFFHNAMGWYRQAPGKEREWVAAINWNGGSTYYADSVKGRFTISRDNAKNTVYLQMNSLKPEDTAVYYCAADIYTYLGAYYIGYYWGQGTQVTVSS,low polyreactivity
13,QVQLVESGGGLVQAGGSLRLSCAASGSTFFHYPMGWYIQATGKERELVAAISWSGGRTSYADSVKGRFTISRDNAKNTVYLQKNSLKPEDTAVYYCAARGRYKDVYRMDYWGQGTQVTVSS,high polyreactivity
14,QVQLVESGGGLVQAGGSLRLSCAASGSTFFIYAMGWYRPAPGKERELVAAISWRDGSTYYADSVKGRFTISRDNAKNTVYLQMNSLKPEDTAVYYCAADYLLPWGIELDYWGQGTQVTVSS,high polyreactivity
15,QVQLVESGGGLVQAGGSLRLSCAASGSTFFKYGMGWYRQAPGKERELVATISSRGGNTSYADSVKGRFTISRDNAKNTVYLLMNSLKPEVTAVYLCNAKLVYVGDTTTWGQGTQVTVSS,low polyreactivity
16,QVQLVESGGGLVQAGGSLRLSCAASGSTFFLYAMGWYIQAPGKERELVAAISGSGGTTYYADSVKGRFTISRDNAKNTVYLQMNSLKPEDTAVYYCNKDYYPGSYDYWGQGTQVTVSS,low polyreactivity
17,QVQLVESGGGLVQAGGSLRLSCAASGSTFFPNAMGWYRQAPGKERELVAAIRWRGGTYYADSVKVRFTISRDNAKNTVYLQMNSLKPEDTAVYYCATSVKPSYDYWGQGTQVTVSS,low polyreactivity
18,QVQLVESGGGLVQAGGSLRLSCAASGSTFFPNGMGWYRQARGKEWELVAAITQDGGSTYYADSVKGRFTISRDNAKNTVYLQMNSLNPEDTAVYYCAASAGPYYEYGYWGQGTQVTVSS,low polyreactivity
19,QVQLVESGGGLVQAGGSLRLSCAASGSTFFPYAMGWYRQAPGKERELVAGISSDGGTSYADSVKGRFTISRDNAKNTVYLQMNSLKPEDTAVYYCAALQADRDRYPAFDLMDYWGQGTQVTVSS,low polyreactivity
20,QVQLVESGGGLVQAGGSLRLSCAASGSTFFRNAMGWYRQAPGKDRELVAAISSSGGRTYYADSVKGRFTISRDNAKNTVYLQMNSLKPVETAVYYCAVVSSHYKGPGRNGYDYWAQGTQVTVSS,high polyreactivity
21,QVQLVESGGGLVQAGGSLRLSCAASGSTFFRNAMGWYRQAPGKERELVAAISKSGTSTYYADSVKGRFTISRDNAKNTVYLQMNSLKPEDTAVYYCAKYGFSYPQSYAYYYWGQGTQVTVSS,high polyreactivity
22,QVQLVESGGGLVQAGGSLRLSCAASGSTFFRYAMGWYRHAPVKERELVAAISASGGRTYYADSVKGRFTISRDNAKNTVYLLMNSLKPEDTAVYYCNRQYGPYQYYYWGQGTQVTVSS,high polyreactivity

row,Sequence,polyreactivity (PSR sort gate)
1,QVQLVESGGGLVQAGGSLRLSCAASGSTFFRYAMGWYRQAPGKERELVAAITTSGGNTYYADSVKGRFTISRDNAKNTVYLQMNSLKPEDTAVYYCNVLRGFPRYYYWGQGTQVTVSS,high polyreactivity
2,QVQLVESGGGLVQAGGSLRLSCAASGSTFFRYARGWYIQAPGKEREFVAAISKRGGSTHYADSVKGRFTISRDNAKKTVYLQMNSLKPADTAVYYCAASSFTSSYNYWGQGTQVTVSS,high polyreactivity
3,QVQLVESGGGLVQAGGSLRLSCAASGSTFFSYAMGWYRQAPGKERDLVAAITSNGGTTHYADSVKGRFTISRDNAKNTVYLQMNSLKPEDTADYYCAKAQGHVRGSRGLQGGRYDYWGQGTQVTVSS,low polyreactivity
4,QVQLVESGGGLVQAGGSLRLSCAASGSTFFSYAMGWYRQAPGKERELVAAISWIDDGTYYADSVKGRFTISRDNAKNTVYLQMNSLKPEDTAVYYCAADIGAYRTWDYEYWGQGTQVTVSS,low polyreactivity
5,QVQLVESGGGLVQAGGSLRLSCAASGSTFFSYAMGWYRQAPGKERELVAVITGSDGRTFYADSVKGRFTISRDNAKNTVYLQMNSLKPEDTAVYYCAADAVFRATRYDRSTSEDDYWGQGTQVTVSS,low polyreactivity
6,QVQLVESGGGLVQAGGSLRLSCAASGSTFFTNTMGWYRQAPGKERELVAAISKSGGSTYYADSVKGRFTISRDNAKNTVYLQMNSLKPEDTAVYYCAASDRYGGRDYWGQGTQVTVSS,high polyreactivity
7,QVQLVESGGGLVQAGGSLRLSCAASGSTFFVYAMGWYRQSPGKERELVADITNSGGNTYYADSVKGRFTISRDNAKNTVFLQMISLKPEDTAVYYCSGEYWFTSYDSWGQGTQVTVSS,high polyreactivity
8,QVQLVESGGGLVQAGGSLRLSCAASGSTFFWYAMGWYRQAPGKEREFVAAITYRGGSTHYADSVKGRFTISRDNAKNTVYLQMNSLKPEDTAVYYCAARSLRYPYDYWGQGTQVTVSS,low polyreactivity
9,QVQLVESGGGLVQAGGSLRLSCAASGSTFFYNAMGWYRQAPGKERELVAAISKRGDRTYYADSVKGRFTISRDNAKNTVYLQMNSLKPEDTAVYYCAADSYSFSYYIEYDYWGQGTQVTVSS,high polyreactivity
10,QVQLVESGGGLVQAGGSLRLSCAASGSTFFYYAMGWSRQEPGKERELVASISSRGGSTYYADSVKGRFTISRDNAKNTVYLQMYSLKPEDTAVYYCAADLWAYGPLWRWSRADYDYWGQGTQVTVSS,low polyreactivity
11,QVQLVESGGGLVQAGGSLRLSCAASGSTFFYYAMGWYRQAPGKERELVARISGGGSTNYADSVKGRFTISRDNAKNTVYLQMNSLKPEDTAVYYCAADRYHYYRYSYGRYGYWGQGTQVTVSS,high polyreactivity
12,QVQLVESGGGLVQAGGSLRLSCAASGSTFGAYAMGWYRQAPGKEMELVAAISRRGGSTYYADSVKGRFTISRDNAKNTVYLQMNSLKPEDTAVYYCNAVGTRVDGEHYYWGQGTKVTVSS,high polyreactivity
13,QVQLVESGGGLVQAGGSLRLSCAASGSTFGAYAMGWYRQAPGKERELVAAISSSDGSTYYADSVKGRFTISRDTAKNTVYLQMNSLKPEDTAVYYCAAEYYSAVYIDEYWYDYWGQGTQVTVSS,high polyreactivity
14,QVQLVESGGGLVQAGGSLRLSCAASGSTFGDNAMGWYRQAPGKEREFVAAITTSGTSTYYADSVKGRFTISRDNAKNTVYVQMNSLKPEDTAVYYCAAYSRAAAGFYSSRRDYYWGQGTQVTVSS,low polyreactivity
15,QVQLVESGGGLVQAGGSLRLSCAASGSTFGDYAMGWFRQAPGKERELVAAMNSGDSRNYADSVKGRFTISRDNAKNTVYLQMNSLKPEDTAVYYCAAEPWSISYVYYKYKYESWGQGTQVTVSS,low polyreactivity
16,QVQLVESGGGLVQAGGSLRLSCAASGSTFGDYVMGWYRQAPGKERELVATITDSGGSTYYADSVKGRFTISRDNAKNTVYLQMNSLKPEDTAVYYCNKDFSVEVYDTAYNYYSYRYGYWGQGTQVTVSS,low polyreactivity
17,QVQLVESGGGLVQAGGSLRLSCAASGSTFGENAMGWYRQAPGKERELVAAISDSGGDTYYADSVKGRFTISRDNAKNTVYLQMNSLKPEDTAVYYCAADRYGYWYAYYSWGQGTQVTVSS,low polyreactivity
18,QVQLVESGGGLVQAGGSLRLSCAASGSTFGFNAMGWYRPAPGKEREFVAAINTSGGNTYYADSVKGRFTISRDNAKNTVYLQMNSLKPEDTAVYYCNAREGHLYGYPYGYWGQGTQVTVSS,low polyreactivity
19,QVQLVESGGGLVQAGGSLRLSCAASGSTFGFNAMGWYRQAPGKERELVAAITFSGGTTYYADSVKGRFTISRDNAKNTVYLQMNSLKPEDTAVYYCNADVKRDRVWGGDYWGQGTQVTVSS,low polyreactivity
20,QVQLVESGGGLVQAGGSLRLSCAASGSTFGFYDMGWYRQAPGKERELVAAITSGDITYADSVKGRFTISRDNAKNTVYLQMNSLKPEDTAVYYCATTSYGYWFGYIPEVDYWGQGTQVTVSS,low polyreactivity
21,QVQLVESGGGLVQAGGSLRLSCAASGSTFGFYTMGWYRQAPGKERELVAAISWSTGRTYYADSVKGRFTISRDNAKNTVYLQMNSLKPEDTAVYYCAARALDKYRFGGRYDYWGQGTQVTVSS,low polyreactivity
